The values that follow come from US20240317871A1 (IMMUNOMIC THERAPEUTICS, published 2024).

T1: His-tagged human HVEM (human, UniProt Q92956 39-202, limits assumed)
T1 construct: Analyte of the BLI assay, 200 nM in PBS; not shown: His tag
T1 sequence (looked up): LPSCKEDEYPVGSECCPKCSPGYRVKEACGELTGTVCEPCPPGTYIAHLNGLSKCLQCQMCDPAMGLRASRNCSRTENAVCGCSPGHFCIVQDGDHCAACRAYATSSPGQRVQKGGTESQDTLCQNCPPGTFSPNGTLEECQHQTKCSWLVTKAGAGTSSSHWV

T2: human HVEM (human, UniProt Q92956 39-202, limits assumed)
T2 sequence (looked up): T1 sequence (looked up)

T3: cynomolgus monkey HVEM (cynomolgus monkey, UniProt A0A2K5W0R1 39-203)
T3 sequence: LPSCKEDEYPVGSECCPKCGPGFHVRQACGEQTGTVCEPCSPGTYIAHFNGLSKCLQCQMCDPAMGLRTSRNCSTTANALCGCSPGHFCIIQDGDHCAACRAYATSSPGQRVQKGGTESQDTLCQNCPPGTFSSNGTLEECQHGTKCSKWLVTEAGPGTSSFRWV

T4: murine HVEM (murine, UniProt Q80WM9 39-206, limits assumed)
T4 construct: also called Mouse
T4 sequence (looked up): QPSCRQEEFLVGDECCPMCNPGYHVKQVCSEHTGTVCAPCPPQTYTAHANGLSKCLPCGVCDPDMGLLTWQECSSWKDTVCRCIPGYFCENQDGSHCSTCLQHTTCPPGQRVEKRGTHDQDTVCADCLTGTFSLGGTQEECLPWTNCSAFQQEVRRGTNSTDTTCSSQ

B1: Ab_004 (H5S14-24A4A) (antibody, V domains shown)
VH: EVQLQQSGPELVKPGTSVKISCKTSGYTITEYTMHWVKQSHGKSLEWIGGINPNNGGTINNQKFKDKATLTVDMSSSTAYMELRSLTSEDSAVYYCAGSVVDRYWYFDVWGAGTTVTVSS
VL: QIVLTQSPAIMSASPGEKVTISCSASSSVSYMYWYQQKPGSSPKPWIYRTSNLASGVPARFSGSGSGTSYSLTISSMEAEDAATYYCQQYHSYPLTFGAGTKLELK
notes: also called Ab_4
B2: Ab_005 (H5S14-4A4A) (antibody, V domains shown)
VH: B1 VH with T16A, I29F, N54Y, D66G
VL: B1 VL
notes: also called Ab_5
B3: Ab_053 (H5S19-20A20A) (antibody, V domains shown)
VH: QVQLKESGPGLVAPSQSLSITCTVSGFSLTSYGVHWVRQPPGKGLEWLGVIWAGGITNYNSALMSRLSISKDNSKSQVFLKMNSLQTDDTAMYYCARDWERDSSGPFVYWGQGTLVTVSA
VL: DIQMTQTTSSLSASLGDRVTISCTASQGISNYLNWYQQKPDGTVKLLIYYTSTLHSGVPSRFSGSGSGTDYSLTISNLEPEDIATYYCQQYFKLPWTFGGGTKLEIK
notes: also called Ab_53
B4: Ab_052 (H5S19-18A17B) (antibody, V domains shown)
VH: B3 VH with S31I, T57I, T87S, V108A
VL: B3 VL with T24S, T53S, S63R, F92S
notes: also called Ab_52
B5: Ab_055 (H5S19-1A1A) (antibody, V domains shown)
VH: DVQLQESGPGLVKPSQSLSLTCTVTGYSITSDYAWNWIRQFPGNKLEWMGYIAYSGGTSYSPSLKSRISITRDTSKNQFFLQLNSVTTEDTATYYCVYFKYGGAFAYWGQGTLVTVSA
VL: NIVLTQSPASLAVSLGQRATISCRASESVDSYGNSLMHWYQQKPGQPPKLLIYLASNLESGVPARFSGSGSRTDFTLTIDPVEADDAATYYCQQNNEDPPTFGGGTKLEI
notes: also called Ab_55
B6: Ab_085 (H5S20-53A41A) (antibody, V domains shown)
VH: EVQLVESGGGLVKPGGSLKLSCAASGFTFSSYAMSWVRQSPEKRLEWVAEISSGGSYTYYPDTVTGRFTISRDNAKNTLYLEMSSLRSEDTAMYYCAREGLRRDYYALDYWGQGTSVTVSS
VL: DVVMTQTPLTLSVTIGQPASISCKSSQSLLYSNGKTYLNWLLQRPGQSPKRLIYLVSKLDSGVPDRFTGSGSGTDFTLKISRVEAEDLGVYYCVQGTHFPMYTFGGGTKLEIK
notes: also called Ab_85
B7: Ab_082 (H5S20-55A36A) (antibody, V domains shown)
VH: EVKLVESGGGLVQPGGSLKLSCAASGFTFSSYTMSWVRQTPEKRLEWVADISNGGGSTYYPDTVKGRFTISRDNAKNTLYLQMSSLKSEDTAMYYCARHRGYGNYVYAMDYWGQGTSVTVSS
VL: DIVMTQSQKFMSTSVGDRVSVTCKASQNVGTNVAWYQQKPGQSPKALIYSASYRYSGVPDRFTGSGSGTDFTLTISNVQSEDLAEYFCQQYNSYPLTFGGGTKLEIK
notes: also called Ab_82

Where a chain is given by its changes, count along the chain named.

For the first test, the target named is T1, His-tagged human HVEM. Nature of the test: BLI OctetRed96, mAb captured, 200 nM His-HVEM. Here is the method:
Binding of antibodies to HVEM may also be determined by bio-layer interferometry (BLI) on an OctetRed96@ system (Sartorius). (See http://www.fortebio.com/bli_technology.html for general description of a BLI assay.) For this experiment, murine anti-human HVEM antibodies were captured from culture supernatant using anti-mouse IgG Fc capture and immobilized to dip and read biosensors. Sensors were then dipped into a solution of 200 nM His-tagged human HVEM in phosphate-buffered saline (PBS). Probes were dipped into PBS assay buffer and the dissociation rate (koff) was measured. The association rate (kₒₙ) and affinity (KD) were determined by curve fitting analysis.
Usually kon stands for the second-order rate constant of association. Turning to B1, the kon came out at 769 M⁻¹ s⁻¹.
B2 came in with a kon of 2240 M⁻¹ s⁻¹.
A word on the Kd: it is the constant that tells how readily two partners part at equilibrium. Broadly, the koff is the rate constant with which the complex falls apart. As for B3, the Kd amounted to 103 nM, the koff came out at 0.00439 s⁻¹ and the kon was 42700 M⁻¹ s⁻¹.
The molecule B4 registered a Kd of 90.9 nM, a koff of 0.00734 s⁻¹ and a kon of 80700 M⁻¹ s⁻¹.
Taken in the same sequence, the figures for B5 were 544 nM, 0.0164 s⁻¹ and 30200 M⁻¹ s⁻¹.

Another test addresses T2, human HVEM. Nature of the test: ELISA. (In general: ELISA stands for enzyme-linked immunosorbent assay.)
For B1, the ELISA signal stood at 2.42.
Same read-out and setting: the figure for B2 is 2.44.
Same read-out and setting: the result for B3 reads 2.89; that for B4, 2.88; that for B6, 0.049.
Turning to B7, the ELISA signal stood at 0.844.
The same measure, in the same setting: the result for B5 reads 2.95.

A further test has as its target T3, cynomolgus monkey HVEM. Briefly: ELISA.
In turn, B1 showed an ELISA signal of 0.062.
Same read-out and setting: the result for B2 reads 0.063; that for B3, 2.1.
As for B4, the ELISA signal is 2.32.
Consider B6, for which the ELISA signal came to 0.061.
The same measure, in the same setting: the result for B7 reads 0.06; that for B5, 2.21.

Another test addresses T4, murine HVEM. Briefly: ELISA.
Regarding B1, the ELISA signal was 0.044.
The same measure, in the same setting: the result for B2 reads 0.048; that for B3, 0.042; that for B4, 0.042.
With B6, the ELISA signal turned out to be 0.046.
Same read-out and setting: the figure for B7 is 0.044.
For the molecule B5, the ELISA signal was found to be 0.042.
